# Results reported in the domain aggregation screens of Martell et al. (2025).
# Test: soluble fraction after stress (log2 fold change); higher = more stays soluble; pooled small domains, quantitative proteomics
# Details: stress: pH 4
# Summary of the method: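 How much of each domain stays soluble after acid stress, expressed as a fold change, is used to gauge aggregation propensity. Pooled custom libraries of small domains underwent pH 4 stress before high-throughput quantitative proteomics. A higher log2 value means more of the domain stayed soluble.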
row,Sequence,soluble fraction (log2)
1,HMKNNAIAPDQVVSLLKNEVNYNDDGRIEILDNNKNIRYNSKGELLTIEERVNEFLDANPHFRK,-0.0472
2,HMELEDTYTKNLDASLARLDEYQASKGLTDEQVDEVINSLIADAENIIMGVFTPELIDSKLKAMNYDQDV,-0.17
3,HMDGYVPAERIASEVGVSARTITREMHGLEMTLMPYGIALLRRTGAGFMLAGTAKALADLRKHMTEDADTQ,0.167
4,HMTDIKYLIADGNDIKHWDTASSSYVKVSELPLTSDKFKIYGDDIYHKERTGIIAASPILKIWSPSAE,-0.0343
5,HMGTDIGADKAAQTALADAGLSSSQVTGLRTKQDWDDGQLRYEVEFRAGGVEYDYELAADGTILKADRDT,0.254
6,HMDFSENEPVTVRVLSILKNNTIRIAVKGAVLQAQTALSQDIREGAFLLMRVHITDNTVVLTPY,-0.193
7,HMPGMLVVYVTGAVRQPGRMVTLAAGSRVSDAIDAAGGLADDADAQALNLSARLNDGDLVHVPSALD,-0.227
8,HMDPLGHVIKKKRLQLGMTLRDLAAKAGVHHATIDRIETDQFKVVDPSTLVKIAEALHLDQLYLLSLN,-0.532
9,HMSAAPVGPWALSEFLDAVEKDSVERVTFDDAGKALVAVDADGGRHRVEILPSEGPEILAALRKHSVQFA,-0.346
10,HMRKDEFLQTLRRALNGNVPPRVVEENVRYYDGYISDEVRKGRSEEEVIEEIGDPRLIARTIEDTT,-0.187
11,HMHREITGSLAERNGRYTAILNLYDEDGKRRQKSIALGIPVKGNKRKAQAQLEELKRAYSLGLPQ,0.051
12,HMGEYGVLWYLLTKKEAVSAGELKEKLHVVPGRMTDILTALEKKGLIIRQKNKTDKRVVDVVLTKEGEKEA,-0.511
13,HMSNLGLQIVRTLTDAGKGVVFITHKLKEALTIADRINVLRRGKVVGDADPKTASESQIAEMMVGRPVQL,0.0653
14,HMELLTYREMDVLNLLDQRLTNKEIAHALGISTETVRQHTVNLFRKLNVDNRRQAIVVARSLGYIGTPT,-0.894
15,HMDEFEEGVITYFNSEKGFGFIRESKTKQSVFVHSKQLSSPVQLNDKVKFIVNKGLKGLEATEVSVI,≥ 0.43
16,HMNEDYSSMVGKTGFALTILRPAGKIMIEEEVFDAVAINGYISKGQEVEVVRYENAQLYVKVK,-0.228
17,HMEFLDQAFLHETMRKVNQDATINLLKKVYEVPQKFIGRKVTVQYDPEDLSRVYVKDLSFPEPVTVYPV,0.12
18,HMFDTVTIGRKIAELRKAHNMTQFELADALGISFQAVSNWERGASMPDISKLPELAEIFGVTIDEVLGK,-1.06
19,HMESKKKTYTVKSGDTLVSILKREGVPQELIFKDYLGLFLELNPQISDINKLRVGQEIVLPVPG,0.3
20,HMFGGIEFGWSQLPDGRVEYIIQLDDQAIAALKNGRSLTSSLPPEVQNADRIRIQYGAGPVEKGLLLQ,-0.0928
21,HMGQVFEGTFNRKANGKNSVTPAEGGEPVFIAERNSLHAMNGDLVKVSLLAKKKHQPREAQVIEILKRSD,0.338
22,HMSDEIQLQFIQISIFKDHPWADMQIKDMNIIPDLLIVMILRDGERIIPNGNTRIMPGDMVIITAMSANT,-1.7
23,HMPSPFYIMDEVEAALDDTNLGRLITLFEELRDSSQLIVITHQKKTMEIADALYGVTMRGDGITTVVSQRL,-2.24
24,HMHRTRNAERTRAAVLKAAAEVLAERGTGASLARIAEVAGVSKSGLLHHFANREQLIVALLED,-0.462
25,HMTFGEMLQYTNRLKEILESNAPQSIKDRRLANLMTDLEQAYGIPILRDQEFEKENPFLMQLYRTIS,-1.36

row,Sequence,soluble fraction (log2)
1,HMAHYPGKVNNELVEFIRSEQRKTPHMTLTGLNRKLQRTYDLTLSESTVRKLVEAETILPLAREPD,0.217
2,HMSIEIKTIDVKHADLFQLQDILRNLYPELNIVPDQRNNKLILQGKRELLVEAERLTLQLDTE,-1.29
3,HMEIHQVEFGGKVISFVLERKPVKNVNLHIKPDMTVMVSANEKVPLDFILGFVKQKAAWILKNIQFFEDV,-1.08
4,HMQLHDTMKRVYEALDISEQKLAESLGLKLSTIINWQKNGISKIGINKLNQTFGLDMQWILTGQGEPFI,-0.0735
5,HMNLIFFSENLSTFRKEKGWTQSELAEKLGVKANTISNYEKGISTPDYKIIAKLRELFEMPTDVLLYSNLS,-0.97
6,HMLQFTYPRLHTKKSWYVDFMSFDPGAGKMRRKKFMLDGIPKITDRRKRAAELIEVLTKQLRAGWSPWVNV,0.403
7,HMNGLPDLSRYTGVSIVDGLASVGSDSSFAYRAKIAETLGISDYKGSAGQNLEMIRKLGGKV,-0.172
8,HMNQRQLQIKQMLDVAQEVFLKQLKTVFPDVSEMTIRRDLILLEDMGYAVRTHGGAVSINRF,-1.2
9,HMNMLGSNIKYLRNRHKLSQQELSEKLGVPRSSLSDYERGHTQVGLDSLIKLADIFDVKIDDLLRSNLSHR,-0.261
10,HMHSKQRDAIFENLRSRKDHPTAEEIYLSLKPAMPAISLATVYRNLAQLENEGLILRLGSGGSARYDGDT,0.164
11,HMTTGEIIQRERTRLGLSQEKLAEQVGVSRQAVSKWELGDAVPDTDKLVPLARTLGISVDTLLD,0.0499
12,HMNMAEETLDTAAKILKAAEEEFMEKGYGNAKMMSIAARAGVSHSMLHYYYRSKGKLFQMIFDEKA,-1.06
13,HMDKKIVGVNAGKVWQALNEVTEISIVELAEKLNLSVESTALAAGWLAREDQISIERKNGTIELQRKN,-0.177
14,HMRKTIQDFLSSNKVDIAKLLTLALEKTKEDLYKNLSYNLTNKELEKLKLLIKKREQGIPFAYLS,0.0954
15,HMDNPPDRAEIEQMLKDAGLTPEADAMAALSDLARTLDPGDFRQTLEKITLYKLGDSTPIGLDDIAAGAP,-1.18
16,HMNEIALETAIEDVESFIQMQNRNLAFSIDEDTDRAVVTVRDSDSGDVIRQIPSEEVLALAERIQDLQQD,-0.485
17,HMISESIPAKDALLRLLNTAYQTRTNAAGEFYFNDVPPGKYILQASVNDVEIIRENISINEN,-0.433
18,HMKNIRKQAIEAIDRIKNGNPIVISKNAKLIFKNIAKEANVSPTELHREFRDVMLYVNSLKAP,0.271
19,HMRIEDTMDYINKIKEKLKNNGGVITSKEFTRSNIPTIYLTRMVETGELIRIDRGIYINSSG,-0.462
20,HMDDLSPEENKVIGAQVREELARRRLSRQHLADKAKISLSTLEKALTGTRPFTLASVVRIEEALQLQLRK,0.344
21,HMQYDALVLNLLQEKNLTSESLKDAQRAFAKSHNLSTLPSKSQILQAYFQLLEQGKIEKNPDFELLL,0.0152
22,HMTIGEALLNLRKQLGLNQTEMAANVVSTSFYSKVERNIHDIGTKDLLQILNKHQINATYFFENLN,-0.446
23,HMKQISNTDELETMVKKIIDDNEEQVNKYRGGNEKLFGWFVGQAMKNTGGTANPKVVNEILSKLLK,≥ 0.43
24,HMNEKEAEEAAEAQTEVPDVTGMAPAQAKNMLYQAGLSSEYRGEGETVSRQLPPAGETVNRGTKAVLYL,0.2
25,HMNNPLLDKVYQLMKQNNITEEEIVRAVAMKGYFPDDMKLGDYPDDFIDGVLIGAWDQIKQFIINNISPFK,-0.359

row,Sequence,soluble fraction (log2)
1,HMNDLKEDTITVQSVEYIDSDDGTMVYIKDTNHQVYKQAFKEDESLIRISAGDVLHVKYQPMDNEIHLL,-2.07
2,HMALRFMAYGRINGTNVHFRTGASASTASLGRYSRGTEFGVYDKIGGWYRVRLLSTGQEGYVYSRYLTLTG,-0.0807
3,HMLTAPMPGTIQQILVTKGQKVRSGQTLMILEAMKMEHKIKAPNSGEIISINYSLGNRVEMGANLIEI,0.0752
4,HMKQYSFEISKADFKKISENFNFKIINEINDSLIISLNDKNINLDELLIFFVERKIKVRSIENI,-1.06
5,HMNEPSSYGYAISVALDRNGLGTVKGGTLYPLLARLEQAAHVETRWEAGDGGPGRKYYTITDSGRS,-0.41
6,HMFEQRLRQAMKELRLKQVQVAGLTGKSRGAISQYLSGDRVPPDGVQREMAIALGLEADYFSR,0.343
7,HMVKDIEFSLPLEQDYYKVLISVKDSQGKRQVYEELHRAGDTVYAAVRYYGSGELEIHLNGKFYKTIK,-1.6
8,HMIKEVGYEKFMQMTEEEDIGRVEIDQEENQITFTDKDETAIYKTGMVDDPDLTERLYDAGAEFS,-0.591
9,HMRQHHMIISTKLGTPKEELAKLVSGFEDQGLRVSVITGTDYTVIGLVGDTTHLDEKRIRANPYVDNVQRV,0.0502
10,HMDKNNLLIIYRTNSEGTPYAFSVTPSAKSLDALHKDAKEMLPFLEKSMNNFFSIQIWERAEYLKY,-0.379
11,HMSTNYVQVLRAALNGVSGRKLAQQYRVSRDTVAILLRQAKIQGWQRAEDLENITEEDLVALLSG,-0.987
12,HMAAENAVGARVKALREAMDLSLRDLSERSGVSPTMLSQVERGSTSPTLAVAEKIAAGLDLSLSQLLRL,0.124
13,HMLEASVYTAEKSGDRLDAFLAEQAGITRSYAQKLIEGGQVTLGGVVPKKNYKLSAGEQVELILPEN,-0.00206
14,HMSMVGSVNKQGRPFALLRVDNLLYQVKVGDYLGQNYGRITQIDETQIALREIVQDAAGEWIERPGVLQL,-0.256
15,HMHALSVKFSDEAAKTLPYDILSALRDVLALDPRPGYSRDENKIYRFEYADYNISFSVKDKTLTVLSAEK,-0.148
16,HMSTMLPFVMRELVELVMKKKALPLGDALYYIYSSKLYKSLLDKSTKLWYSSTLSLYETLEKEKTEEKRRY,-0.802
17,HMIDLPEAFIQQLKEAVDVGDVTGLRELLGQLRRRYPQQSALSDEAERLLREFDFERLAQLFEGLD,-1.54
18,HMELPMGTQLPPERELAQQMQVSRAVVNGGLAELAQQGFLEVRPRQGTFVADYRRKGNLSTLIAIMEY,0.22
19,HMATPSTGQVSVVRLNLRVSPSISSPVVTRLTQGDTVKILAASDDGRWYKVATADGRTGWLYTIYITAE,-0.209
20,HMQRYFLEEAYQPSEKFELSAEAFHHIVHVMRMKPKDRVYLAFSDQQVIIAEITEITEEKVYLTEIEKEE,-1.63
21,HMENSPLTHREAEVMRLMSEGKSNRAISEHLVISEKTVKNHVSSILQKMSVDDRTQAVLQAIKNGWVD,0.142
22,HMTLGSVRTVRQVLDDGRLLVADSGGNVTLVRRAGTLAKENVNTGDRVSVDSSVRFALTLIPV,-0.00374
23,HMTIHVMEIKSLLPIKILDESQHLVQSFSSKNPTSYNYRLIFSDKSKLENIKKTINENKDVESIEIRYA,-0.436
24,HMNNTIKFSVDSQNSGKRLDIFLTENIKNYTRSFLKKLIENRQVKLNNNFIISPSERVKFKDQININILQ,0.199
25,HMSKPTLTLKSNAYPYNLNGERINNYLGFTYIKKGATLNYQGSKRINGQNYYYIGDGAYIKNTTVGSTNN,≥ 0.43
